# ± gives the standard deviation of the averaged measurements.
# Tested on: Saccharomyces cerevisiae
# Assay: protein stability index of tFT-peptide fusion (C-terminal peptide) (PSI (0-1 scale)); higher = more stable (slower turnover)
# Details: genetic background: wild type; temperature: 30 C
# Protocol: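 MPS profiling in S. cerevisiae of the yeast C-terminome library: the last 12 aa of each annotated ORF are fused to the C-terminus of a sfGFP-mCherry timer, after a GGGS linker. Cells are FACS-sorted into 8 mCherry/sfGFP bins and deep-sequenced. PSI runs from 0 (unstable) to 1 (stable); wild type and das1Δ backgrounds, two technical replicates each.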
row,Sequence,protein stability index
1,LSKDGIYTAIPK [PAU15 C-terminal 12 aa],0.767 ± 0.12
2,LSRVGELYLSTD [SEC7 C-terminal 12 aa],0.692 ± 0.038
3,LSVEEDRDVQMT [APC5 C-terminal 12 aa],0.729 ± 0.054
4,LVDIITGASSLG [ATP3 C-terminal 12 aa],0.719 ± 0.041
5,LVVARDMLLASL [SPC25 C-terminal 12 aa],0.624 ± 0.024
6,LVYENVRVPRYL [IFM1 C-terminal 12 aa],0.6639 ± 0.0064
7,LWNLSDNCKNTV [MMS1 C-terminal 12 aa],0.7014 ± 0.0061
8,LYAQLRENGLVP [SNU114 C-terminal 12 aa],0.683 ± 0.038
9,MAEKQIASEFNY [DBP7 C-terminal 12 aa],0.662 ± 0.0067
10,MAQNYVIDRMGL [MTC1 C-terminal 12 aa],0.68 ± 0.037
11,MEKSDRYIQETW [TAH18 C-terminal 12 aa],0.691 ± 0.009
12,MERELIKEEYDN [PAA1 C-terminal 12 aa],0.67 ± 0.031
13,MERLQKGWSLAK [MDY2 C-terminal 12 aa],0.684 ± 0.02
14,MFGKLGRYLYSH [NSG2 C-terminal 12 aa],0.211 ± 0.04
15,MFNQGKVEEMDF [SML1 C-terminal 12 aa],0.692 ± 0.017
16,MGIRLRYNVEPK [RPA135 C-terminal 12 aa],0.663 ± 0.014
17,MKFNVISFLFHK [NAM2 C-terminal 12 aa],0.615 ± 0.011
18,MKQLEKAGVRFE [FMP33 C-terminal 12 aa],0.686 ± 0.014
19,MLGVGSLLFLAF [ROT1 C-terminal 12 aa],0.691 ± 0.026
20,MLYTSYQSIFGV [AVT4 C-terminal 12 aa],0.706 ± 0.0086
21,MNSAMNVQPTGF [CHC1 C-terminal 12 aa],0.662 ± 0.033

row,Sequence,protein stability index
1,MTQWLEISILMN [YCL001W-A C-terminal 12 aa],0.319 ± 0.034
2,MVGVLFFWVWIT [BET1 C-terminal 12 aa],0.123 ± 0.018
3,NAPRFGVEYQMT [PHO89 C-terminal 12 aa],0.67 ± 0.017
4,NCANCVYFSSRG [YDL221W C-terminal 12 aa],0.716 ± 0.043
5,NDAQKRAIDENF [SIS1 C-terminal 12 aa],0.683 ± 0.0076
6,NDQNKNKQNAKR [YIL156W-A C-terminal 12 aa],0.639 ± 0.011
7,NDTIFKLKVFKL [ILS1 C-terminal 12 aa],0.759 ± 0.099
8,NEDDYLAVKYVL [FES1 C-terminal 12 aa],0.696 ± 0.044
9,NEGSEEEPEIDQ [BDP1 C-terminal 12 aa],0.702 ± 0.037
10,NEKGNDDSDAKK [ILM1 C-terminal 12 aa],0.685 ± 0.029
11,NEKRNEPKPSTN [YTA12 C-terminal 12 aa],0.656 ± 0.017
12,NEMRERLRALQN [VPS24 C-terminal 12 aa],0.685 ± 0.054
13,NENKKANGNNCC [YPT31 C-terminal 12 aa],0.652 ± 0.036
14,NHFHYDCVYRYC [YOR333C C-terminal 12 aa],0.404 ± 0.03
15,NIKSSTLPGLSI [PFS2 C-terminal 12 aa],0.664 ± 0.029
16,NKYMNEMLEYMQ [NUF2 C-terminal 12 aa],0.719 ± 0.085
17,NLAGRKNSRDNE [LOT5 C-terminal 12 aa],0.6772 ± 0.0027
18,NLDNLFMASSLI [AIM6 C-terminal 12 aa],0.658 ± 0.033
19,NMGGWVLGGNAR [SND1 C-terminal 12 aa],0.6926 ± 0.0057
20,NNGSSNNNTQNT [SNF5 C-terminal 12 aa],0.673 ± 0.022
21,NNLHSYEKRLHN [YAR075W C-terminal 12 aa],0.7 ± 0.015

row,Sequence,protein stability index
1,NNQPHYRDQLLQ [REI1 C-terminal 12 aa],0.706 ± 0.048
2,NNVDVSWVDKLV [STB5 C-terminal 12 aa],0.714 ± 0.046
3,NPAARLDEDLYE [FRS2 C-terminal 12 aa],0.707 ± 0.022
4,NQKNEDLSDIKL [UTP30 C-terminal 12 aa],0.755 ± 0.13
5,NQTSFSRDRLRR [RRD1 C-terminal 12 aa],0.722 ± 0.066
6,NRAKGKVVVKMK [YIM1 C-terminal 12 aa],0.6976 ± 0.0037
7,NRRNNGYHPYNR [HRP1 C-terminal 12 aa],0.6645 ± 0.0011
8,NSARKRVFGTVI [DIP2 C-terminal 12 aa],0.655 ± 0.0069
9,NSISPPPRKGFI [YGL006W-A C-terminal 12 aa],0.714 ± 0.055
10,NTFTEHNSNIYY [SPT10 C-terminal 12 aa],0.706 ± 0.029
11,NTNELTDEHRWI [PHO2 C-terminal 12 aa],0.668 ± 0.017
12,NVFNPDQPRMGP [YLR154W-A C-terminal 12 aa],0.711 ± 0.018
13,NVGYMHTQPQQR [TCO89 C-terminal 12 aa],0.67 ± 0.016
14,NVIRVWQVMTAN [ASC1 C-terminal 12 aa],0.272 ± 0.016
15,NVLTVVNPDEAD [SLG1 C-terminal 12 aa],0.6841 ± 0.0015
16,NWSNQQINVQSS [PHM8 C-terminal 12 aa],0.674 ± 0.018
17,NYEITPYENVHV [TOS2 C-terminal 12 aa],0.7131 ± 0.0041
18,NYLFKLMGPSSD [VTC2 C-terminal 12 aa],0.655 ± 0.008
19,PAAVFAETLKHD [RPL4B C-terminal 12 aa],0.705 ± 0.011
20,PDDQIHSILLSL [MET13 C-terminal 12 aa],0.714 ± 0.018
21,PGGGGGSPLIFL [YHR165W-A C-terminal 12 aa],0.728 ± 0.02

row,Sequence,protein stability index
1,PGTRGRVASKFL [MIM1 C-terminal 12 aa],0.705 ± 0.0099
2,PISHVNNNDTHA [SLM3 C-terminal 12 aa],0.688 ± 0.0079
3,PKYKEEESRSAV [RSN1 C-terminal 12 aa],0.668 ± 0.019
4,PLTNNIRPISIM [YJR115W C-terminal 12 aa],0.6548 ± 0.005
5,PMIWHLVKKQWK [TOM5 C-terminal 12 aa],0.682 ± 0.052
6,PPNSTSTNPYSS [SKG3 C-terminal 12 aa],0.7181 ± 0.0014
7,PPPQESTEKEEK [MRP13 C-terminal 12 aa],0.668 ± 0.0098
8,PPSPQEELLIEL [VPS27 C-terminal 12 aa],0.7051 ± 0.0024
9,PRERLLSEYCSS [MET8 C-terminal 12 aa],0.7199 ± 0.0033
10,PSNASNTTTRRP [YKR045C C-terminal 12 aa],0.6901 ± 0.0053
11,PSYPSEKISYSK [ADO1 C-terminal 12 aa],0.726 ± 0.065
12,PTIVGGLYYQRP [AAR2 C-terminal 12 aa],0.696 ± 0.012
13,QAKKSNSCCIIM [YKT6 C-terminal 12 aa],0.766 ± 0.06
14,QAKLTAATNAKQ [PDC1 C-terminal 12 aa],0.716 ± 0.035
15,QEGGDNTKIKQN [RNP1 C-terminal 12 aa],0.638 ± 0.024
16,QFFFTSRQKNYV [ERP4 C-terminal 12 aa],0.654 ± 0.01
17,QIADDRPWCRME [YHC3 C-terminal 12 aa],0.6831 ± 0.0064
18,QIAFAWQNKPRL [PXP1 C-terminal 12 aa],0.793 ± 0.045
19,QKAQDVDVSMQD [RPN13 C-terminal 12 aa],0.654 ± 0.026
